# Assay results reported in paper doi:10.1101/2019.12.18.881771 (bioRxiv, 2019).
# No end group written: not given here. *: point of attachment. FITC = O=C1OC2(c3ccc(O)cc3Oc3cc(O)ccc32)c2ccc(NC(=S)*)cc21
# T1: GIT1 GAP-ANK-SHD (GAS) tandem (mouse, UniProt Q68FF6 1-371)
# T1 sequence (looked up): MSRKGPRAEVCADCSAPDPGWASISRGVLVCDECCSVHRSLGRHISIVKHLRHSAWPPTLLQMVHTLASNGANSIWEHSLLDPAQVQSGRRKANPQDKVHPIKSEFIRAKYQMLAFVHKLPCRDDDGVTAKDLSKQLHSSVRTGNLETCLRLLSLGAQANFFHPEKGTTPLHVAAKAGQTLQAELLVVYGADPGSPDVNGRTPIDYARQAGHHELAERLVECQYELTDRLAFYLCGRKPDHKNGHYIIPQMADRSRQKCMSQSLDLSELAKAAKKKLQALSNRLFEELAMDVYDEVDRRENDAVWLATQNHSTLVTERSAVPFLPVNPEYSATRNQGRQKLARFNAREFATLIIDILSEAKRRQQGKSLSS
# T2: GIT1 SHD domain (mouse, UniProt Q68FF6 260-371)
# T2 sequence (looked up): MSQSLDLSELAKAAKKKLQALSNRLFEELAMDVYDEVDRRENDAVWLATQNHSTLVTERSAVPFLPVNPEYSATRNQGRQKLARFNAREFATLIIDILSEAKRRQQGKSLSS
# B1: β-Pix coiled-coil domain, wild type (domain or fragment, mouse, UniProt Q9ES28-4 691-751, looked up)
# chain: EEKSLVDTVYALKDEVQELRQDNKKMKKSLEEEQRARKDLEKLVRKVLKNMNDPAWDETNL
# B2: GIT1 coiled-coil domain, wild type (domain or fragment, mouse, UniProt Q68FF6 426-483, looked up)
# chain: SDGAVTLQEYLELKKALATSEAKVQQLMKVNSSLSDELRRLQREIHKLQAENLQLRQP
# B3: β-Pix GBD peptide (aa 528-548) (peptide)
# peptide: ALEEDAQILKVIEAYCTSAKT
# B4: β-Pix 494-555 (domain or fragment, mouse, UniProt Q9ES28-4 599-660, looked up)
# chain: DLSKSPKTMKKLLPKRKPERKPSDEEFAVRKSTAALEEDAQILKVIEAYCTSAKTRQTLNSS
# B5: FITC-labelled β-Pix GBD Y542D peptide (peptide, UniProt Q9ES28-4 633-653, looked up)
# peptide: {FITC}-ALEEDAQILKVIEADCTSAKT
# Columns and labels:
# [1] = target: FITC-labelled β-Pix GBD peptide, wild type (mouse); assay: fluorescence polarisation
# [2] = target: GIT1 FAT domain (aa 640-770) (mouse) (UniProt Q68FF6); assay: ITC
# SEC-MALS = target: the molecule itself; assay: SEC-MALS
# [3] = target: T1, GIT1 GAP-ANK-SHD (GAS) tandem; assay: ITC
# GIT1 SHD domain = target: T2, GIT1 SHD domain; assay: ITC
# [4] = target: T1, GIT1 GAP-ANK-SHD (GAS) tandem; assay: fluorescence polarisation
# GIT1 FAT domain (aa 640-770) (mouse), sequence (Q68FF6 640-770): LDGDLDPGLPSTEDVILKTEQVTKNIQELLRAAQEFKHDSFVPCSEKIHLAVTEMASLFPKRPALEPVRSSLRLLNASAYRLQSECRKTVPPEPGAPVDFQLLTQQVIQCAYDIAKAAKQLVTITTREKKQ
molecule,measurement,setting,value
"GIT2 GAP-ANK-SHD (GAS) tandem, wild type, purified (domain or fragment)",Kd,[1],27 nM
Paxillin LD4 motif (aa 261-282) (peptide),Kd,[2],3000 nM
Paxillin LD2 motif (peptide),Kd,[2],164000 nM
B1,stoichiometry N,SEC-MALS,3
B2,stoichiometry N,SEC-MALS,2
B3,Kd,[3],~15 nM
same,Kd,GIT1 SHD domain,~180 nM
B4,Kd,GIT1 SHD domain,~150 nM
B5,Kd,[4],~76400 nM
